Laboratory results taken from patent US20250236657A1 (TOSOH, published 2025).

Legend:
Assay in all cases: affinity HPLC, POROS AAVX resin, linear pH gradient 4.5 to 2.2, AAV2 peak top
[1] = target: AAV2 R471A (adeno-associated virus serotype 2 (AAV2)) (UniProt P03135)
[2] = target: AAV2 S384A (adeno-associated virus serotype 2 (AAV2)) (UniProt P03135)
[3] = target: AAV2 Q263A (adeno-associated virus serotype 2 (AAV2)) (UniProt P03135)
[4] = target: AAV2 T503S (adeno-associated virus serotype 2 (AAV2)) (UniProt P03135)
[5] = target: AAV2 N382A (adeno-associated virus serotype 2 (AAV2)) (UniProt P03135)
[6] = target: AAV2 D528A (adeno-associated virus serotype 2 (AAV2)) (UniProt P03135)
[7] = target: AAV2 H271A (adeno-associated virus serotype 2 (AAV2)) (UniProt P03135)
[8] = target: AAV2 D529A (adeno-associated virus serotype 2 (AAV2)) (UniProt P03135)
[9] = target: AAV2 S267T (adeno-associated virus serotype 2 (AAV2)) (UniProt P03135)
[10] = target: AAV2 H271F (adeno-associated virus serotype 2 (AAV2)) (UniProt P03135)

“POROS Capture Select AAVX Affinity Resin (manufactured by Thermo Fisher Scientific)” was tested, and the AAVX column elution time [1] was 48.1 min, the AAVX column elution time [2] was 48 min and the AAVX column elution time [3] was 48 min. The AAVX column elution time [4] was 48 min, the AAVX column elution time [5] was 47.9 min and the AAVX column elution time [6] was 47.8 min. For the same substance, the AAVX column elution time [7] was 48.2 min, the AAVX column elution time [8] was 47.8 min and the AAVX column elution time [9] was 48 min. It also gave an AAVX column elution time [10] of 48.1 min.
